Test results as given in US11332512B2, “Peptides and combination of peptides for use in immunotherapy against various tumors” (Immatics Biotechnologies GmbH, priority 2015, dated 2022).

Target: HLA-A*02:01 (Homo sapiens, UniProt P04439, D140Y/D185E/D98H/E176V/E277Q/G131W/G231S/I119V/I121R/I166T/I218V/L300P/L318F/N151K/N90K/P208A/P217A/Q86G/Q94H/R138H/R169H/T345S)
Assay: MHC binding assay: UV-ligand exchange with beta2m ELISA (peptide exchange yield)
Settings: binding to HLA-A*02:01, β2m ELISA
Text: Candidate peptides for T cell based therapies according to the present invention were further tested for their MHC binding capacity (affinity). The individual peptide-MHC complexes were produced by UV-ligand exchange, where a UV-sensitive peptide is cleaved upon UV-irradiation, and exchanged with the peptide of interest as analyzed. Only peptide candidates that can effectively bind and stabilize the peptide-receptive MHC molecules prevent dissociation of the MHC complexes. To determine the yield of the exchange reaction, an ELISA was performed based on the detection of the light chain (β2m) of stabilized MHC complexes. The assay was performed as generally described in Rodenko et al. (Rodenko et al., 2006).
96 well MAXISorp plates (NUNC) were coated over night with 2 ug/ml streptavidin in PBS at room temperature, washed 4× and blocked for 1 h at 37° C. in 2% BSA containing blocking buffer. Refolded HLA-A*02:01/MLA-001 monomers served as standards, covering the range of 15-500 ng/ml. Peptide-MHC monomers of the UV-exchange reaction were diluted 100 fold in blocking buffer. Samples were incubated for 1 h at 37° C., washed four times, incubated with 2 ug/ml HRP conjugated anti-β2m for 1 h at 37° C., washed again and detected with TMB solution that is stopped with […]. Absorption was measured at 450 nm. Candidate peptides that show a high exchange yield (preferably higher than 50%, most preferred higher than 75%) are generally preferred for a generation and production of antibodies or fragments thereof, and/or T cell receptors or fragments thereof, as they show sufficient avidity to the MHC molecules and prevent dissociation of the MHC complexes.

Row | Substance | Peptide exchange (MHC class I binding score, peptide exchange yield)
1 | 148 (YLILSSHQL; listed as Homo sapiens) [compound 148] | +++ (= ≥50% = +++)
2 | 150 (VLLDMVHSL; listed as Homo sapiens) [compound 150] | +++ (= ≥50% = +++)
3 | 153 (KLVELEHTL; listed as Homo sapiens) [compound 153] | +++ (= ≥50% = +++)
4 | 158 (YLDPLWHQL; listed as Homo sapiens) [compound 158] | +++ (= ≥50% = +++)
5 | 159 (QLGPVPVTI; listed as Homo sapiens) [compound 159] | +++ (= ≥50% = +++)
6 | 160 (TLQEWLTEV; listed as Homo sapiens) [compound 160] | +++ (= ≥50% = +++)
7 | 162 (GLLGNLLTSL; listed as Homo sapiens) [compound 162] | +++ (= ≥50% = +++)
8 | 164 (MLIIRVPSV; listed as Homo sapiens) [compound 164] | +++ (= ≥50% = +++)
9 | 165 (SLLDYEVSI; listed as Homo sapiens) [compound 165] | +++ (= ≥50% = +++)
10 | 166 (LLGDSSFFL; listed as Homo sapiens) [compound 166] | +++ (= ≥50% = +++)
11 | 167 (LVVDEGSLVSV; listed as Homo sapiens) [compound 167] | +++ (= ≥50% = +++)
12 | 168 (VIFEGEPMYL; listed as Homo sapiens) [compound 168] | +++ (= ≥50% = +++)
13 | 169 (ALADLSVAV; listed as Homo sapiens) [compound 169] | +++ (= ≥50% = +++)
14 | 173 (RLIDIYKNV; listed as Homo sapiens) [compound 173] | +++ (= ≥50% = +++)
15 | 175 (SLLDLVQSL; listed as Homo sapiens) [compound 175] | +++ (= ≥50% = +++)
16 | 177 (ALINVLNAL; listed as Homo sapiens) [compound 177] | +++ (= ≥50% = +++)
17 | 179 (TLGEIIKGV; listed as Homo sapiens) [compound 179] | +++ (= ≥50% = +++)
18 | 180 (RLYEEEIRI; listed as Homo sapiens) [compound 180] | +++ (= ≥50% = +++)
19 | 181 (LLWAPTAQA; listed as Homo sapiens) [compound 181] | +++ (= ≥50% = +++)
20 | 182 (GLQDGFQITV; listed as Homo sapiens) [compound 182] | +++ (= ≥50% = +++)
21 | 183 (ALSYILPYL; listed as Homo sapiens) [compound 183] | +++ (= ≥50% = +++)
22 | 190 (SLSTELFKV; listed as Homo sapiens) [compound 190] | +++ (= ≥50% = +++)
23 | 191 (AAIEIFEKV; listed as Homo sapiens) [compound 191] | +++ (= ≥50% = +++)
24 | 193 (ALFHMNILL; listed as Homo sapiens) [compound 193] | +++ (= ≥50% = +++)
25 | 195 (VIIQNLPAL; listed as Homo sapiens) [compound 195] | +++ (= ≥50% = +++)

Row | Substance | Peptide exchange (MHC class I binding score, peptide exchange yield)
26 | 200 (IMPTFDLTKV; listed as Homo sapiens) [compound 200] | +++ (= ≥50% = +++)
27 | 204 (SEWGSPHAAVP; listed as Homo sapiens) [compound 204] | +++ (= ≥50% = +++)
28 | 207 (KLFETVEEL; listed as Homo sapiens) [compound 207] | +++ (= ≥50% = +++)
29 | 210 (GLAGDNIYL; listed as Homo sapiens) [compound 210] | +++ (= ≥50% = +++)
30 | 211 (LLTTVLINA; listed as Homo sapiens) [compound 211] | +++ (= ≥50% = +++)
31 | 213 (ILAVDGVLSV; listed as Homo sapiens) [compound 213] | +++ (= ≥50% = +++)
32 | 214 (ALFETLIQL; listed as Homo sapiens) [compound 214] | +++ (= ≥50% = +++)
33 | 217 (LLWPSSVPA; listed as Homo sapiens) [compound 217] | +++ (= ≥50% = +++)
34 | 218 (SLTGANITV; listed as Homo sapiens) [compound 218] | +++ (= ≥50% = +++)
35 | 220 (ALSELERVL; listed as Homo sapiens) [compound 220] | +++ (= ≥50% = +++)
36 | 223 (ALHPVQFYL; listed as Homo sapiens) [compound 223] | +++ (= ≥50% = +++)
37 | 224 (LLFDWSGTGRADA; listed as Homo sapiens) [compound 224] | +++ (= ≥50% = +++)
38 | 225 (FLPQPVPLSV; listed as Homo sapiens) [compound 225] | +++ (= ≥50% = +++)
39 | 226 (SLAGNLQEL; listed as Homo sapiens) [compound 226] | +++ (= ≥50% = +++)
40 | 228 (SLLELDGINLRL; listed as Homo sapiens) [compound 228] | +++ (= ≥50% = +++)
41 | 230 (KLLNMIFSI; listed as Homo sapiens) [compound 230] | +++ (= ≥50% = +++)
42 | 231 (LLDDIFIRL; listed as Homo sapiens) [compound 231] | +++ (= ≥50% = +++)
43 | 237 (ALLEQTGDMSL; listed as Homo sapiens) [compound 237] | +++ (= ≥50% = +++)
44 | 239 (VIIKGLEEITV; listed as Homo sapiens) [compound 239] | +++ (= ≥50% = +++)
45 | 241 (KQFEGTVEI; listed as Homo sapiens) [compound 241] | +++ (= ≥50% = +++)
46 | 244 (NVAEIVIHI; listed as Homo sapiens) [compound 244] | +++ (= ≥50% = +++)
47 | 248 (VLMQDSRLYL; listed as Homo sapiens) [compound 248] | +++ (= ≥50% = +++)
48 | 249 (YLYQILQGI; listed as Homo sapiens) [compound 249] | +++ (= ≥50% = +++)
49 | 250 (LMQDSRLYL; listed as Homo sapiens) [compound 250] | +++ (= ≥50% = +++)
50 | 251 (LLWGNLPEI; listed as Homo sapiens) [compound 251] | +++ (= ≥50% = +++)
